In PMC8409985:

Biological target: truncated human ACE2 ectodomain (residues 19–613) with C-terminal AVI-tag and 6xHis-tag, biotinylated (human) (UniProt Q9BYF1)
Assay: BLI

Substance | t1/2 [min]
SARS-CoV-2 RBD variant N439K (from UniProt P0DTC2 319-541) (domain or fragment) | 1.85
SARS-CoV-2 RBD variant N501Y (from UniProt P0DTC2 319-541) (domain or fragment) | 5.49
